pKd: −log10 of the molar value.
What was measured:
[1] = target: soluble complex of ¹²⁵I-IL-12 crosslinked to human IL-12R (human) (UniProt P29459); experiment: immunoprecipitation of solubilized 125I-IL-12/IL-12R complex by immobilized control antibody (background)
[2] = target: recombinant human IL-12 receptor (clone No. 5, SEQ ID NO:2) expressed in COS cells (human); experiment: equilibrium binding of labelled murine IL-12 to COS cells expressing clone 5, Scatchard, single site (Figure 19B)

Chain of soluble complex of ¹²⁵I-IL-12 crosslinked to human IL-12R (human) (P29459 23-219, form in doubt, chain 1 of 3, other chains not shown): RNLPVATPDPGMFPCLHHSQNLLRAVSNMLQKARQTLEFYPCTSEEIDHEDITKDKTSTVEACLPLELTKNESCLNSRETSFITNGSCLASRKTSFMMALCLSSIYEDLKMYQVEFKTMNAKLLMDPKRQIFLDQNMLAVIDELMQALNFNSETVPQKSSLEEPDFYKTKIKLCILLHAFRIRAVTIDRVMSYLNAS
Chain of soluble complex of ¹²⁵I-IL-12 crosslinked to human IL-12R (human) (P29460 23-328, form in doubt, chain 2 of 3, other chains not shown, further chain): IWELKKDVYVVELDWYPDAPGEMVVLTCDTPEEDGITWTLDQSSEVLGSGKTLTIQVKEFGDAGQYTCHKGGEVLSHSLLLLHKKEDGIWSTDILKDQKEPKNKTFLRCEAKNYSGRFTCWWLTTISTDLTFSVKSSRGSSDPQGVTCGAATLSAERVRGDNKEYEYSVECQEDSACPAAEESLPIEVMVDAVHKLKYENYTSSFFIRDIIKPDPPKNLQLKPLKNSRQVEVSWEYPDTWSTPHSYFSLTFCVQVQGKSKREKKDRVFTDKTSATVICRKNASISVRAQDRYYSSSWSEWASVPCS

Row | Substance | I.P. ASSAY (cpm bound) [1] [cpm] | pKd [2]
1 | Control mAb (Table 1) (antibody) | 402 | 
2 | Recombinant murine IL-12 (from UniProt P43431 23-215; P43432 23-335) (ligand) |  | 8.68

Source: EP0638644A1
